From publication PMC4947014 come the findings set out here.

The target in test [1] is Im7 L18AL19AL37AH40W (E. coli).
For test [2], the target named is Im7 L18AL19AL37AH40W (E. coli). Description: stopped-flow fluorescence.
Test [3] deals with Im7, wild type (E. coli). The test can be described thus: stopped-flow fluorescence.

Positions count from the first letter of the chain named. Names may count otherwise.

B1: Spy, wild type (natural protein)
chain: ADTTTAAPADAKPMMHHKGKFGPHQDMMFKDLNLTDAQKQQIREIMKGQRDQMKRPPLEERRAMHDIIASDTFDKVKAEAQIAKMEEQRKANMLAHMETQNKIYNILTPEQKKQFNANFEKRLTERPAAKGKMPATAE
As for B1, the stoichiometry N in test [1] was 1. Moreover, the kon in test [2] worked out at 1.2e+08 M⁻¹ s⁻¹. In test [3], this molecule returned a kobs of release of native Im7 (double mixing, chase after 6 ms) of 141 s⁻¹ and an off-rate constant (koff) of 131 s⁻¹.

B2: Spy Q100L (natural protein)
chain: B1 chain with Q100L
With B2, in test [2], the fold increase in affinity (Kd) over SpyWT stood at 150 fold and the fold lower release rate constant (koff) than SpyWT stood at 130 fold.

B3: Spy H96L (natural protein)
chain: B1 chain with H96L
In test [2], B3 registered a fold increase in affinity (Kd) over SpyWT of 7 fold and a fold lower release rate constant (koff) than SpyWT of 5 fold.
